{
  "source": "patent US12465618B2",
  "about": "“Compositions and methods for degenerative disc regeneration” (University Health Network, priority 2015, dated 2025)",
  "molecules": {"B1": {"name": "WISP-2: Human recombinant Wnt-inducible soluble protein 2, Peprotech, identified in NCCM (protein, UniProt O76076 24-250, looked up)", "CCN family member 5": "QLCPTPCTCPWPPPRCPLGVPLVLDGCGCCRVCARRLGEPCDQLHVCDASQGLVCQPGAGPGGRGALCLLAEDDSSCEVNGRLYREGETFQPHCSIRCRCEDGGFTCVPLCSEDVRLPSWDCPHPRRVEVLGKCCPEWVCGQGGGLGTQPLPAQGPQFSGLVSSLPPGVPCPEWSTAWGPCSTTCGLGMATRVSNQNRFCRLETQRRLCLSRPCPPSRGRSPQNSAF"}},
  "type_in_all_cases": "cell-based",
  "key": {"rat NP cells": {"test_system": "rat NP cells", "assay": "Western blotting of rat NP cells treated with IL-1β/TNFα with or without inhibitors or growth factors", "details": "rat-tail NP cells treated with IL-1β and TNFα, Western blot, FIG. 5g-5h", "experimental": "After euthanasia, healthy rat lumbar/caudal spine IVDs, injured tail discs and bovine caudal IVD NPs were removed aseptically and the nucleus pulposus (NP) was removed separately and enzymatically digested according to methods established by the present inventors^16. Similarly, human degenerative disc NPs were enzymatically digested using Pronase (0.4%, 1 hr at 37° C.) followed by Collagenase II treatment (0.015%, O/N, 37° C.). The following day, the cells were filtered with a 70p cell strainer and cultured within a hypoxic incubator (NuAire, MN, USA) in 3.5% O2, 5% CO2, in Advanced Dulbecco's modified Eagle's medium (ADMEM) supplemented with 8% fetal bovine serum (FBS) and penicillin and streptomycin (100 U/mL). For treatments, the cells were either cultured in serum free ADMEM (no treatment controls) or treated with interleukin-1β (IL-1β, 10 ng/mL), tumor necrosis factor-alpha (TNFα, 50 ng/mL), connective tissue growth factor (CTGF, 10-100 ng/mL), Wnt-inducible soluble protein 2 (WISP2, 10-100 ng/mL) or transforming growth factor beta 1 (TGFβ1, 5-20 ng/mL) for various time points under hypoxic conditions.\nEqual amounts of whole cell or tissue lysates prepared using RIPA lysis buffer were subjected to Western blotting as described earlier^18,19. Total lysates (30 μg) were resolved on 10% sodium dodecyl sulphate-polyacrylamide gels (SDS-PAGE) under reducing conditions and then proteins were electro-transferred onto polyvinyledendifluoride (PVDF) membranes (BioRad, CA). After blocking with 5% non-fat powdered milk in Tris-buffered saline (TBS, 0.1 M, pH=7.4), blots were incubated with rabbit or goat polyclonal/mouse monoclonal primary antibodies at 4° C. overnight. […] Blots were washed three times with TTBS for 15 minutes and protein bands were detected by the enhanced chemiluminescence method (BioRad, CA) on Kodak Hyperfilm."}, "[1]": {"test_system": "human degenerated disc NP cells", "assay": "MTT cell viability assay", "experimental": "(§1) Nucleus pulposus cells (rat, bovine and human) were plated in 96-well flat bottom plates in order to evaluate the effect of treatment with growth factors in cell viability and proliferation assays. Rat NP cells were treated with CTGF, WISP-2 and TGFβ1 in a dose (1 ng/mL-100 ng/mL) and time dependent manner (24 hrs-96 hrs) to determine the optimum dose and time for the assessment of these growth factors on viability. Cell viability was determined using 3-(4,5-dimethylthiazol-2-yl)-2,5-diphenyltetrazolium bromide (MTT, Sigma-Aldrich, USA) as previously described^44. A BrdU-ELISA (colorimetric) assay (Cat #ab126556, Abcam) was used for determining the effect of treatment with CTGF or TGFβ1 on human and rat NP cells (healthy/injured) following the manufacturer's instructions. Briefly, NP cells were treated with CTGF or TGFβ1 alone or in combination for 48 hrs following addition of BrdU reagent O/N in each well. Incorporated BrdU in DNA of proliferating cells was determined using anti-BrdU antibody and quantified by ELISA as per the manufacturer's instructions."}, "[2]": {"test_system": "rat-tail disc NP cells (healthy/injured)", "assay": "MTT cell viability assay", "details": "CTGF 100 ng/ml, TGFβ1 10 ng/ml, 48 hrs-72 hrs", "experimental": "as §1"}, "[3]": {"test_system": "human degenerative disc NP cells", "assay": "Caspase 9 Lumi-Glo assay, cytokine induced", "details": "48 hrs", "experimental": "Apoptosis induced in NP cells (rat and human) as result of treatment with pro-inflammatory cytokines (IL-1β and TNFα) was determined using Caspase 3/7 and Caspase 9 specific Lumi-Glo assays (Promega, Madison). Briefly, NP cells were plated and treated with either IL-1β alone or in combination with TNFα only or in presence of CTGF and TGFβ1 for 48 hrs, followed by addition of specific reagents for Caspase 3/7 and Caspase 9 as per the manufacturer's instructions. Cells were incubated for another 4 hrs at 37° C., and plates were read in a multi-well luminescence plate reader."}},
  "data": [
    {"molecule": "B1", "values": [
      {"measurement": "expression of MMP-3, MMP-13 and Cox2 proteins in presence of growth factor", "setting": "rat NP cells", "value": "reduced expression"},
      {"measurement": "cell viability (MTT)", "setting": "[1]", "value": "no significant change"},
      {"measurement": "cell viability (MTT)", "setting": "[2]", "value": "no significant change"},
      {"measurement": "IL-1β and TNFα induced caspase 9 activity", "setting": "[3]", "value": "significant reduction"}
    ]}
  ]
}
